According to PMC6541287 (2019):

Target: T1, Coactosin (Entamoeba histolytica, UniProt C4M4P4)
T1 chain: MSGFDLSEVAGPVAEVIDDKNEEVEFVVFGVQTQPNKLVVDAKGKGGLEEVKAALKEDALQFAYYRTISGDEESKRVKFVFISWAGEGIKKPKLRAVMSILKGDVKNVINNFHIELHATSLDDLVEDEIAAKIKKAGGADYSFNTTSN
Experiment: SPR

B1: EhP3 (protein)
chain: MAESREDCVFLSKLAEQSERYDEMVQYMKQVAALNTELSVEERNLLSVAYKNVIGSRRASWRIITSLEQKEQAKGNDKHVEIIKGYRAKIEDELAKYCDDVLKVIKENLLPNASTSESKVFYKKMEGDYYRYYAEFTVDEKRQEVADKSLAAYTEATEISNADLAPTHPIRLGLALNFSVFYYEIMNDADKACQLAKQAFDDSIAKLDEVPESSYKDSTLIMQLLRDNLTLWTSDTADEE
For B1, which Kd is on record?
The Kd was 3000 nM.
